Test results published in article PMC7984459.

Biological target: Epac1-camps-PDE4A1
Experiment: molecular brightness analysis

Epac1-camps-PDE4A1
stoichiometry N: 2
